Measurements from PMC9637222 (2022).

Assays:
Assay in all cases: ITC
[1] = molecular target: T1, SipB (tag-free, purified) (S. Typhimurium, UniProt Q56019 1-593)
T1 chain: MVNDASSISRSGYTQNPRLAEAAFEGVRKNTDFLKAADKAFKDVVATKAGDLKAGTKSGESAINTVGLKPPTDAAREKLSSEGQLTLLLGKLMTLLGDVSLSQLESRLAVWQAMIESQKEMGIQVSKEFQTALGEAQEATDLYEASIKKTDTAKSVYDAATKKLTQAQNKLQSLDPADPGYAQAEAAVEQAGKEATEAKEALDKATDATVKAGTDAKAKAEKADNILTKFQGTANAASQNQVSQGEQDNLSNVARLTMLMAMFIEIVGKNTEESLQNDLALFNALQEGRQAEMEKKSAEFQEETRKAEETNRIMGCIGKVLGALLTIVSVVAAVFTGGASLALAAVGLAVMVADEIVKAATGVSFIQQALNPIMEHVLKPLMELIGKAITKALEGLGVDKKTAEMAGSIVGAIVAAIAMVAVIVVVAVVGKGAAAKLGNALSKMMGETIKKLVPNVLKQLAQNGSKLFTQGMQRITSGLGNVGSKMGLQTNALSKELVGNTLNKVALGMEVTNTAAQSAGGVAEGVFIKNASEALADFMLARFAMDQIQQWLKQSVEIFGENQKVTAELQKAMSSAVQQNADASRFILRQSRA

[2] = molecular target: T2, SipC (tag-free, purified) (S. Typhimurium, UniProt P0CL47 1-409)
T2 chain: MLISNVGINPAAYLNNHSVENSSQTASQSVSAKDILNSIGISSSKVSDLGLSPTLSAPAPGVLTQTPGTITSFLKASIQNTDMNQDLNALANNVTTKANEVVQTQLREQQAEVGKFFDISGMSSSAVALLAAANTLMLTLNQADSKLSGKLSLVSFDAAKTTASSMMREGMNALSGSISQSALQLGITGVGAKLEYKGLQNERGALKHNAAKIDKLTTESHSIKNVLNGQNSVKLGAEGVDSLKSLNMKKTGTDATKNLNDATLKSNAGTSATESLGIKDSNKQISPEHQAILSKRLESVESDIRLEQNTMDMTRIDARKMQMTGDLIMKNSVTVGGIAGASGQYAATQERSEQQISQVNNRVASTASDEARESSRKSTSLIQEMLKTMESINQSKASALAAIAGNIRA

[3] = molecular target: T3, InvF (tag-free, purified) (S. Typhimurium, UniProt P69343 1-216)
T3 chain: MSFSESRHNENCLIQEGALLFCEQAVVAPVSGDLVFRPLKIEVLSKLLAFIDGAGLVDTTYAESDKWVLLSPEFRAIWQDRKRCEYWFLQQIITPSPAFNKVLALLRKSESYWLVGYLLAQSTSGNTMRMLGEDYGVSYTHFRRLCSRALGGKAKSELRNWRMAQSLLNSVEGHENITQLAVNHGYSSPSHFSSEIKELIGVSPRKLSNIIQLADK

B1: SicA (tag-free, purified) (natural protein)
chain: MDYQNNVSEERVAEMIWDAVSEGATLKDVHGIPQDMMDGLYAHAYEFYNQGRLDEAETFFRFLCIYDFYNPDYTMGLAAVCQLKKQFQKACDLYAVAFTLLKNDYRPVFFTGQCQLLMRKAAKARQCFELVNERTEDESLRAKALVYLEALKTAETEQHSEQEKE
B1 gave a Kd [1] of 530 nM, a Kd [2] of 610 nM and a Kd [3] of 460 nM.
